Experimental findings from paper PMC2150902 (The Journal of Cell Biology, 2001) are described below.

As usually defined, the stoichiometry N is a count of units in the complex or per binding partner.

This series deals with the molecule itself. In words: dynamic light scattering.

B1: Δ9-Sar1A (hamster Sar1 lacking residues 2–9), GDP-bound form (domain or fragment)
chain: not shown
For B1, the “stoichiometry N” value amounted to 2.
